This is an account of results in paper PMC12409746.

The target of the assay is GST (glutathione S-transferase) released from the GST-P fusion protein (S. japonicum). Put plainly: SEC. For orientation: In gel filtration, larger molecules generally elute earlier.

“GST (glutathione S-transferase) released from the GST-P fusion protein (natural protein)”: the stoichiometry N (commonly the number of molecules, sites or subunits per partner or assembly) is 2.
